Assay results reported in publication PMC9372576, “Interaction of the gas vesicle proteins GvpA, GvpC, GvpN, and GvpO of Halobacterium salinarum” (Frontiers in Microbiology, 2022).

B1: GvpA fragment A1-22 (domain or fragment, Halobacterium salinarum, UniProt P08958 1-22, looked up)
chain: MAQPDSSGLAEVLDRVLDKGVV
notes: GvpA of Halobacterium salinarum, the first 22 aa including alpha-helix 1; vector described in Winter et al., 2018 and Voelkner et al., 2020; source: Hfx. volcanii WR340 transformant, split-GFP fusion in living cells
B4: GvpA fragment A20-47 (domain or fragment, Halobacterium salinarum, UniProt P08958 20-47, looked up)
chain: GVVVDVWARVSLVGIEILTVEARVVAAS
notes: GvpA of Halobacterium salinarum, the two beta-sheets beta1-beta2; vector described in earlier work; source: Hfx. volcanii WR340 transformant, split-GFP fusion in living cells
B5: GvpC C-terminal fragment Cterm (domain or fragment, Halobacterium salinarum, UniProt P24574 329-382, looked up)
chain: ETEEEAPEDMVQCRVCGEYYQAITEPHLQTHDMTIQEYRDEYGEDVPLRPDDKT
notes: GvpC of Halobacterium salinarum, aa 329-382, the globular C-terminal domain with a zinc-finger motif; GFP fragment at the N- or C-terminus; source: Hfx. volcanii WR340 transformant, split-GFP fusion in living cells
B6: GvpA fragment A1-43 (domain or fragment, Halobacterium salinarum, UniProt P08958 1-43, looked up)
chain: MAQPDSSGLAEVLDRVLDKGVVVDVWARVSLVGIEILTVEARV
notes: GvpA of Halobacterium salinarum, alpha1-beta1-beta2; vector described in earlier work; source: Hfx. volcanii WR340 transformant, split-GFP fusion in living cells
B7: GvpA fragment A1-34 (domain or fragment, Halobacterium salinarum, UniProt P08958 1-34, looked up)
chain: MAQPDSSGLAEVLDRVLDKGVVVDVWARVSLVGI
notes: GvpA of Halobacterium salinarum, alpha1 plus beta-sheet 1; vector described in earlier work; source: Hfx. volcanii WR340 transformant, split-GFP fusion in living cells

Tests used:
Assay in all cases: split reporter (BiFC, NanoBiT); split-GFP (NGFP and CGFP of salt-stable mGFP2) in Hfx. volcanii transformants, 24 h 37 °C then 24 h 30 °C; relative fluorescence (rf) against the wild type; the highest of eight tag combinations is given
GvpA fragment A1-34 = target: B7; details: partners not purified
GvpA fragment A1-43 = target: B6; details: partners not purified
GvpA fragment A20-47 = target: B4; details: partners not purified
GvpA fragment A44-76 = target: T1, GvpA fragment A44-76 (Halobacterium salinarum, UniProt P08958 44-76); details: partners not purified
T1 construct: GvpA of Halobacterium salinarum, mainly helix alpha3; vector described in earlier work; source: Hfx. volcanii WR340 transformant, split-GFP fusion in living cells
T1 chain (looked up): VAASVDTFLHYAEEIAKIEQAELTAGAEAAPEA

[1] = target: T2, GvpA fused to NGFP or CGFP (Halobacterium salinarum, UniProt P08958 1-76); details: partners not purified
T2 construct: the entire GvpA of the p-vac region of Halobacterium salinarum; gvpA reading frame; NGFP (mGFP2 up to aa 157) or CGFP (from aa 158) at the N- or C-terminus through a 14 aa (pJAS) or 16 aa (pWLfdx) linker; with GvpF and its variants CGFP stood at the C-terminus of GvpA (AC); also called NA; AN; source: Hfx. volcanii WR340 transformant, split-GFP fusion in living cells
T2 sequence (looked up): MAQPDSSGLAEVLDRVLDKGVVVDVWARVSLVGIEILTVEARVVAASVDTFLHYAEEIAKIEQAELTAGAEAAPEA

[2] = target: T3, GvpC fused to NGFP or CGFP (Halobacterium salinarum, UniProt P24574 1-382); details: partners not purified
T3 construct: GvpC of the p-vac region of Halobacterium salinarum; gvpC amplified from the p-vac region; GFP fragment at the N- or C-terminus, 14 or 16 aa linker; source: Hfx. volcanii WR340 transformant, split-GFP fusion in living cells
T3 sequence (looked up): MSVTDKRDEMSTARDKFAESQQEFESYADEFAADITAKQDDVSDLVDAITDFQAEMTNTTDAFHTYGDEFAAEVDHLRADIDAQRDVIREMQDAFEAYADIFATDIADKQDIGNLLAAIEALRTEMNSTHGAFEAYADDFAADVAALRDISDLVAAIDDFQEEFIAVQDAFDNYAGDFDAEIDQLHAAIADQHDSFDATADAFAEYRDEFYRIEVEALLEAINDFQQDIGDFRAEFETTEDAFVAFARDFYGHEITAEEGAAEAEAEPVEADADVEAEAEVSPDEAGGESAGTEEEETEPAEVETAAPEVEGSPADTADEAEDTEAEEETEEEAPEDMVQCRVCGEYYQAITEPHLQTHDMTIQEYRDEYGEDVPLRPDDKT

[3] = target: T4, GvpN fused to NGFP or CGFP (Halobacterium salinarum, UniProt Q9HI16 1-347); details: partners not purified
T4 construct: GvpN of the p-vac region of Halobacterium salinarum; gvpN amplified from the p-vac region; GFP fragment at the N- or C-terminus, 14 or 16 aa linker; source: Hfx. volcanii WR340 transformant, split-GFP fusion in living cells
T4 sequence (looked up): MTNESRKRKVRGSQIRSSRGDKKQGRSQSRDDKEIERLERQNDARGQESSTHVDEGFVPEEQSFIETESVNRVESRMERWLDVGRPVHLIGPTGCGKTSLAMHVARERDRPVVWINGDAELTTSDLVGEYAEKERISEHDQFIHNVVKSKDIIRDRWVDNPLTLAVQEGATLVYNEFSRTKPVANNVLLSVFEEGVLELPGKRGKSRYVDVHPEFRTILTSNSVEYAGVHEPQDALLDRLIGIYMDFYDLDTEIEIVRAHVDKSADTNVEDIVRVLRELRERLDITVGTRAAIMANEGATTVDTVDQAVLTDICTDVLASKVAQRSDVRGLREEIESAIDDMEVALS

[4] = target: B5; details: partners not purified
GvpA fragment A1-22 = target: B1; details: partners not purified
[5] = target: the molecule itself

**Q.** Which “relative fluorescence (rf)” value (GvpA fragment A1-34) does the source give for B1 here?
**A.** ≤ 0.48 LAU/mm^2

**Q.** What about the “relative fluorescence (rf)” value (GvpA fragment A1-43) of the same binder?
**A.** ≤ 0.48 LAU/mm^2

**Q.** What about the “relative fluorescence (rf)” value (GvpA fragment A20-47) of the same binder?
**A.** ≤ 0.48 LAU/mm^2

**Q.** What about the “relative fluorescence (rf)” value (GvpA fragment A44-76) of the same binder?
**A.** ≤ 0.48 LAU/mm^2

B2: GvpF fused to NGFP or CGFP (natural protein, Halobacterium salinarum, UniProt Q9HI21 1-213, looked up)
chain: MTENLYTYGIIEQEDLELDVEGVAGAEQVYTVDYKTLSAVVSDIDTTDPERTDEDVEAHNNVLQEVLKHEEERTVVPMSFGMAFKSARTLKGVLRGARRALRSTLNDIEGTVELGVKILGPGDDTVPREEIQENVTDQLADLSINETENDLFTDRLIINKSYLVDFEKRDAFDSAIDDVEAEYDELTIQYTGPWPPYNFVDIHIGAEQQQGGR
notes: GvpF (wild type) of the p-vac region of Halobacterium salinarum; R213 is the very last aa; parent of the GvpF variants; also called Fwt; WT; source: Hfx. volcanii WR340 transformant, split-GFP fusion in living cells
**Q.** How did the “relative fluorescence (rf)” value [1] turn out when B2 was run?
**A.** 18 LAU/mm^2

**Q.** And the “relative fluorescence (rf)” value [2]?
**A.** > 7.5 LAU/mm^2

**Q.** What about the “relative fluorescence (rf)” value [3] of the same binder?
**A.** < 5 LAU/mm^2

**Q.** What about the “relative fluorescence (rf)” value [4] of the same binder?
**A.** > 18 LAU/mm^2

B3: GvpC N-terminal fragment Nterm (domain or fragment, Halobacterium salinarum, UniProt P24574 10-130, looked up)
chain: MSTARDKFAESQQEFESYADEFAADITAKQDDVSDLVDAITDFQAEMTNTTDAFHTYGDEFAAEVDHLRADIDAQRDVIREMQDAFEAYADIFATDIADKQDIGNLLAAIEALRTEMNSTH
notes: GvpC of Halobacterium salinarum, amino acids 10-130, the first three alpha-helical repeats; GFP fragment at the N- or C-terminus; source: Hfx. volcanii WR340 transformant, split-GFP fusion in living cells
**Q.** For B3, which “relative fluorescence (rf)” value [1] is on record?
**A.** < 2.5 LAU/mm^2

**Q.** What about the “relative fluorescence (rf)” value [4] of the same binder?
**A.** 10.1 LAU/mm^2

**Q.** And the “relative fluorescence (rf)” value (GvpA fragment A1-22)?
**A.** 3.57 LAU/mm^2

**Q.** With B4 as the binder, how does the “relative fluorescence (rf)” value (GvpA fragment A44-76) read?
**A.** ≤ 0.48 LAU/mm^2

**Q.** What does the source list for B5?
**A.** relative fluorescence (rf) [1]: < 2.5 LAU/mm^2; relative fluorescence (rf) [5]: 20.7 LAU/mm^2

**Q.** For B6, which “relative fluorescence (rf)” value (GvpA fragment A20-47) is on record?
**A.** ≤ 0.48 LAU/mm^2

**Q.** And the “relative fluorescence (rf)” value (GvpA fragment A44-76)?
**A.** ≤ 0.48 LAU/mm^2

**Q.** What does the source list for B7?
**A.** relative fluorescence (rf) (GvpA fragment A1-43): ≤ 0.48 LAU/mm^2; relative fluorescence (rf) (GvpA fragment A20-47): ≤ 0.48 LAU/mm^2; relative fluorescence (rf) (GvpA fragment A44-76): ≤ 0.48 LAU/mm^2

B8: GvpO fused to NGFP or CGFP (natural protein, Halobacterium salinarum, UniProt O51968 1-119, looked up)
chain: MADPANDRSEREEGGEDDETPPASDGNPSPSANSFTLSNAQTRAREAAQDLLEHQFEGMIKAESNDEGWRTVVEVVERNAVPDTQDIIGRYEITLDGTGDVTGYELLERYRRGDMKEEL
notes: GvpO of the p-vac region of Halobacterium salinarum; gvpO amplified from the p-vac region; GFP fragment at the N- or C-terminus, 14 or 16 aa linker; source: Hfx. volcanii WR340 transformant, split-GFP fusion in living cells
**Q.** Which results are given for B8?
**A.** relative fluorescence (rf) [2]: < 5 LAU/mm^2; relative fluorescence (rf) [3]: 12.5 LAU/mm^2; relative fluorescence (rf) (GvpA fragment A1-22): 3 LAU/mm^2; relative fluorescence (rf) [5]: > 10 LAU/mm^2
